Here are results for two molecules from publication PMC3923439, “Anti-inflammatory properties of a novel peptide interleukin 1 receptor antagonist” (Journal of Neuroinflammation, 2014).

No end group written: not given here.

The subject of experiment [1] is AMJ2-C8 macrophages. Briefly: TNF-α secretion from IL-1β-activated macrophages (L929 bioassay). It counts as cell-based, mouse. Particulars: 1.2 pM IL-1β, 24 hours; TNF-α by L929 survival with actinomycin D; hydrocortisone at 100 μM. On the procedure:
A murine alveolar macrophage cell line, AMJ2-C8 (American Type Culture Collection, Borås, Sweden), was routinely grown at 37°C with 5% CO2 in DMEM supplemented with 5% (vol/vol) FCS, 0.5% (v/v) 2-[4-(2-hydroxyethyl)piperazin-1-yl]ethanesulfonic acid (HEPES) (Gibco BRL), 2 mM GlutaMAX, 100 U/ml penicillin and 100 μg/ml streptomycin.
AMJ2-C8 macrophages were seeded into six-well multidishes at a density of 2.5 × 10^5 cells/well, and sIL-1RI, IL-1Ra or various concentrations of Ilantide were added to the cultures. Treatment with 100 μM hydrocortisone (Sigma-Aldrich, Brøndby, Denmark) was used as a positive control. After 10-minute incubation at 37°C, 1.2 pM IL-1β or IFN-γ (R&D Systems) was added to activate the macrophages. L929 cells were seeded onto a 96-well plate (Nunc, Roskilde, Denmark) at a density 0.2 × 10^2 cells/ml. Both cell cultures were incubated for 24 hours at 37°C. Conditioned medium from macrophages was collected and added to the L929 cell cultures together with actinomycin D (0.6 μg/well; Sigma-Aldrich). TNF-α is known to induce classic apoptosis in L929 cells in the presence of actinomycin D [12]. After 24-hour incubation at 37°C, 20 μl of 3-(4,5-dimethylthiazol-2-yl)-5-(3-carboxymethoxyphenyl)-2-(4-sulfophenyl)-2H-tetrazolium (Promega, Madison, WI, USA) were added to each well and incubated at 37°C in the dark for 45 minutes, then measured in an ELISA reader at 490 nm. To calculate the amount of TNF-α in the conditioned medium, fibroblasts were treated with standard concentrations of TNF-α (R&D Systems).

Experiment [2] deals with T1, recombinant ectodomain of IL-1 receptor type I (IL-1RI) (UniProt P14778 18-336).
T1 construct: interleukin 1 receptor type I, ectodomain; No catalogue number, limits or tag are printed for the bought protein; also called sIL-1RI; soluble IL-1 receptor type I; source: bought: R&D Systems
T1 sequence (looked up): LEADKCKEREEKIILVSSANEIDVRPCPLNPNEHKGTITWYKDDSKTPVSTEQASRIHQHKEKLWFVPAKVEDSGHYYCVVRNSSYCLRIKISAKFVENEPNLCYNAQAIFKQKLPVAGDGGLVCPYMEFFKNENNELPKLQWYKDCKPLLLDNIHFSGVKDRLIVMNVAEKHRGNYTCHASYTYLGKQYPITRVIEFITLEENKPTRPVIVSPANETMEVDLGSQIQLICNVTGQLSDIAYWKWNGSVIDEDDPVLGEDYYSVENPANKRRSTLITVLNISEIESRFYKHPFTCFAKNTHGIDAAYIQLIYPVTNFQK
Briefly: SPR; Biacore 2000; about 2,500 to 3,000 RU of Ilantide-t, IL-1β or IL-1Ra immobilised on a CM4 sensor chip; IL-1RI ectodomain (or NCAM Ig1-Ig2 as negative control) injected; 25°C, 10 mM sodium phosphate pH 7.4, 150 mM NaCl; apparent Kd. As to conditions: both partners purified. For orientation: SPR reads the build-up and loss of mass on a sensor chip optically.

For the molecule `C[C@]12CCC(=O)C=C1CC[C@@H]1[C@@H]2[C@@H](O)C[C@@]2(C)[C@H]1CC[C@]2(O)C(=O)CO` [hydrocortisone, reference compound], the “Inhibition of IL-1β-induced TNF-α secretion in macrophages” value in experiment [1] is reported as “completely inhibited”.

B1: Ilantide-t (peptide)
peptide: SGRKSSKMQA
modifications: also: dendrimer of four monomers coupled to a lysine backbone
notes: ten residues from the N terminus of human IL-1 receptor antagonist (IL-1Ra); Four copies of the peptide on a lysine backbone; also called IL-1 antagonistic peptide (dendrimer form); source: synthetic peptide; bought: Schafer-N; further purified by gel filtration (Sephadex G-10)
As a reminder, the koff is the rate constant with which the complex falls apart. For orientation: kon means the rate constant with which the complex forms. Regarding B1, in experiment [2], the Kd is 27.5 nM, the koff was 0.00269 s⁻¹ and the kon came to 184000 M⁻¹ s⁻¹.
